Sequences and labels used below:
B1: Mineralocorticoid receptor, residues 600 to 675; numbered along this chain, P08235 (parent)
chain: SKICLVCGDEASGCHYGVVTCGSCKVFFKRAVEGQHNYLCAGRNDCIIDKIRRKNCPACRLQKCLQAGMNLGARKS

± gives the uncertainty stated by the source.

The data set covers variants of B1. The data set is described as follows: abundance fitness (aPCA) (normalised: wild type 0, dead -1); higher = more abundant; growth selection in yeast, the domain comes from the species named. The settings on record: Homo sapiens.
In the case of SKICLVCGDEASGCHYGVVTCGSCKNFFKRAVEGQHNYLCAGRNDCIIDKIRRKNCPACRLQKCLQAGMNLGARKS, the abundance fitness is -0.123 ± 0.11.

Turning to SKICLVCGDEASGCHYGVVTCGSCKVFCKRAVEGQHNYLCAGRNDCIIDKIRRKNCPACRLQKCLQAGMNLGARKS, the abundance fitness is -0.364 ± 0.21.

As for SKICLVCGDEASGCHYGVVTCGSCKVFDKRAVEGQHNYLCAGRNDCIIDKIRRKNCPACRLQKCLQAGMNLGARKS, the abundance fitness is -0.782 ± 0.33.

Turning to SKICLVCGDEASGCHYGVVTCGSCKVFEKRAVEGQHNYLCAGRNDCIIDKIRRKNCPACRLQKCLQAGMNLGARKS, the abundance fitness is -0.749 ± 0.13.

As for SKICLVCGDEASGCHYGVVTCGSCKVFAKRAVEGQHNYLCAGRNDCIIDKIRRKNCPACRLQKCLQAGMNLGARKS, the abundance fitness is -0.263 ± 0.048.

Turning to SKICLVCGDEASGCHYGVVTCGSCCVFFKRAVEGQHNYLCAGRNDCIIDKIRRKNCPACRLQKCLQAGMNLGARKS, the abundance fitness was -0.022 ± 0.063.

SKICLVCGDEASGCHYGVVTCGSCIVFFKRAVEGQHNYLCAGRNDCIIDKIRRKNCPACRLQKCLQAGMNLGARKS: the abundance fitness is -0.069 ± 0.11.

Take SKICLVCGDEASGCHYGVVTCGSCTVFFKRAVEGQHNYLCAGRNDCIIDKIRRKNCPACRLQKCLQAGMNLGARKS: the abundance fitness was -0.105 ± 0.057.

As for SKICLVCGDEASGCHYGVVTCGSCWVFFKRAVEGQHNYLCAGRNDCIIDKIRRKNCPACRLQKCLQAGMNLGARKS, the abundance fitness is -0.083 ± 0.053.

Take SKICLVCGDEASGCHYGVVTCGSCQVFFKRAVEGQHNYLCAGRNDCIIDKIRRKNCPACRLQKCLQAGMNLGARKS: the abundance fitness is -0.006 ± 0.055.

SKICLVCGDEASGCHYGVVTCGSCAVFFKRAVEGQHNYLCAGRNDCIIDKIRRKNCPACRLQKCLQAGMNLGARKS: the abundance fitness is -0.065 ± 0.042.

SKICLVCGDEASGCHYGVVTCGSCRVFFKRAVEGQHNYLCAGRNDCIIDKIRRKNCPACRLQKCLQAGMNLGARKS: the abundance fitness was -0.051 ± 0.04.

With SKICLVCGDEASGCHYGVVTCGSCPVFFKRAVEGQHNYLCAGRNDCIIDKIRRKNCPACRLQKCLQAGMNLGARKS, the abundance fitness is -0.058 ± 0.072.

With SKICLVCGDEASGCHYGVVTCGSCDVFFKRAVEGQHNYLCAGRNDCIIDKIRRKNCPACRLQKCLQAGMNLGARKS, the abundance fitness was -0.087 ± 0.075.

As to SKICLVCGDEASGCHYGVVTCGSCGVFFKRAVEGQHNYLCAGRNDCIIDKIRRKNCPACRLQKCLQAGMNLGARKS, the abundance fitness was -0.051 ± 0.04.

In the case of SKICLVCGDEASGCHYGVVTCGSCNVFFKRAVEGQHNYLCAGRNDCIIDKIRRKNCPACRLQKCLQAGMNLGARKS, the abundance fitness worked out at 0.084 ± 0.12.

On to SKICLVCGDEASGCHYGVVTCGSCFVFFKRAVEGQHNYLCAGRNDCIIDKIRRKNCPACRLQKCLQAGMNLGARKS, for which the abundance fitness is -0.112 ± 0.099.

Consider SKICLVCGDEASGCHYGVVTCGSCMVFFKRAVEGQHNYLCAGRNDCIIDKIRRKNCPACRLQKCLQAGMNLGARKS, for which the abundance fitness is -0.018 ± 0.061.

For SKICLVCGDEASGCHYGVVTCGSCHVFFKRAVEGQHNYLCAGRNDCIIDKIRRKNCPACRLQKCLQAGMNLGARKS, the abundance fitness was -0.128 ± 0.11.

For SKICLVCGDEASGCHYGVVTCGSCEVFFKRAVEGQHNYLCAGRNDCIIDKIRRKNCPACRLQKCLQAGMNLGARKS, the abundance fitness was -0.01 ± 0.051.

On to SKICLVCGDEASGCHYGVVTCGSCVVFFKRAVEGQHNYLCAGRNDCIIDKIRRKNCPACRLQKCLQAGMNLGARKS, for which the abundance fitness is -0.035 ± 0.042.

SKICLVCGDEASGCHYGVVTCGSCSVFFKRAVEGQHNYLCAGRNDCIIDKIRRKNCPACRLQKCLQAGMNLGARKS: the abundance fitness was -0.033 ± 0.044.

As to SKICLVCGDEASGCHYGVVTCGSEKVFFKRAVEGQHNYLCAGRNDCIIDKIRRKNCPACRLQKCLQAGMNLGARKS, the abundance fitness was -1.03 ± 0.19.

For the variant SKICLVCGDEASGCHYGVVTCGSLKVFFKRAVEGQHNYLCAGRNDCIIDKIRRKNCPACRLQKCLQAGMNLGARKS, the abundance fitness was -0.581 ± 0.092.

SKICLVCGDEASGCHYGVVTCGSSKVFFKRAVEGQHNYLCAGRNDCIIDKIRRKNCPACRLQKCLQAGMNLGARKS: the abundance fitness is -0.867 ± 0.14.

On to SKICLVCGDEASGCHYGVVTCGSPKVFFKRAVEGQHNYLCAGRNDCIIDKIRRKNCPACRLQKCLQAGMNLGARKS, for which the abundance fitness is -0.878 ± 0.2.

In the case of SKICLVCGDEASGCHYGVVTCGSVKVFFKRAVEGQHNYLCAGRNDCIIDKIRRKNCPACRLQKCLQAGMNLGARKS, the abundance fitness was -1.01 ± 0.13.

On to SKICLVCGDEASGCHYGVVTCGSNKVFFKRAVEGQHNYLCAGRNDCIIDKIRRKNCPACRLQKCLQAGMNLGARKS, for which the abundance fitness was -0.632 ± 0.17.

SKICLVCGDEASGCHYGVVTCGSWKVFFKRAVEGQHNYLCAGRNDCIIDKIRRKNCPACRLQKCLQAGMNLGARKS: the abundance fitness is -1.11 ± 0.19.

In the case of SKICLVCGDEASGCHYGVVTCGSMKVFFKRAVEGQHNYLCAGRNDCIIDKIRRKNCPACRLQKCLQAGMNLGARKS, the abundance fitness is -1.04 ± 0.24.

With SKICLVCGDEASGCHYGVVTCGSKKVFFKRAVEGQHNYLCAGRNDCIIDKIRRKNCPACRLQKCLQAGMNLGARKS, the abundance fitness is -1.03 ± 0.34.

Consider SKICLVCGDEASGCHYGVVTCGSAKVFFKRAVEGQHNYLCAGRNDCIIDKIRRKNCPACRLQKCLQAGMNLGARKS, for which the abundance fitness is -0.983 ± 0.15.

As for SKICLVCGDEASGCHYGVVTCGSDKVFFKRAVEGQHNYLCAGRNDCIIDKIRRKNCPACRLQKCLQAGMNLGARKS, the abundance fitness was -0.252 ± 0.18.

Regarding SKICLVCGDEASGCHYGVVTCGSRKVFFKRAVEGQHNYLCAGRNDCIIDKIRRKNCPACRLQKCLQAGMNLGARKS, the abundance fitness is -0.855 ± 0.11.

For the variant SKICLVCGDEASGCHYGVVTCGSQKVFFKRAVEGQHNYLCAGRNDCIIDKIRRKNCPACRLQKCLQAGMNLGARKS, the abundance fitness was -1 ± 0.44.

Regarding SKICLVCGDEASGCHYGVVTCGSHKVFFKRAVEGQHNYLCAGRNDCIIDKIRRKNCPACRLQKCLQAGMNLGARKS, the abundance fitness is -0.67 ± 0.28.
